Patent US20070207154A1, “METHOD OF MODULATING VASCULARIZATION” (priority 2004, published 2007)

Tested on: sprouting from wild-type, TFΔCT and PAR-2-deficient aortas
Assay: ex vivo angiogenesis assay (aortic ring sprouting in Matrigel)
Format: cell-based, mouse
Details: wild-type and TFΔCT aortas, EGM without serum, day 4; growth factors 20 ng/ml, VIIa 50 nM (FIG. 2c)
Protocol: Angiogenesis assays. The ex vivo angiogenesis assay was adopted from the rat aortic sprouting model described by Masson et al. Biol. Proced. […] Thoracic aortas from 8-11 week old wild-type, TFΔCT, PAR-2-deficient, and TFΔCT/PAR-2-deficient mice of either sex were embedded in Matrigel, and overlaid with EGM supplemented with 5% serum, growth factors, or inhibitors at the following concentrations: VEGF, bFGF, and PDGF: 20 ng/ml; hirudin: 500 nM, VIIai: […], NAPc2: […], NAP5: 1 μM, VIIa: 50 nM. In most cases, the number of aortic sprouts was determined at day 3 and 4 without knowledge of the genotype. Aortic ring RNA was isolated by Trizol (Invitrogen) extraction using standard procedures, digested with DNAaseI, followed by RT-PCR for β-actin and TF. […] Tests used 2 different virus doses, referred to as high (1.1×10^10 virus particles/ml) and low (5×10^9 particles/ml). For confocal fluorescence microscopy, aortic pieces with a minimum of surrounding Matrigel were fixed with 4% paraformaldehyde and methanol, incubated with primary and secondary antibodies (24 hours each), and mounted in anti-fade medium (Vector laboratories). Alternatively, cryosections of OCT-embedded aortas were fixed with acetone and stained as described above.

B1: PDGF-BB: platelet-derived growth factor BB, activates PDGF receptor β (protein, UniProt P01127 82-190, looked up)
Platelet-derived growth …: SLGSLTIAEPAMIAECKTRTEVFEISRRLIDRTNANFLVWPPCVEVQRCSGCCNNRNVQCRPTQVQLRPVQVRKIEIVRKKPIFKKATVTLEDHLACKCETVAAARPVT
modifications: BB homodimer
In the case of B1, the “sprouting induced by single factor replacing serum” value is reported as “None of these factors promoted substantial sprouting”.
